Measurements reported in paper PMC8484898 (Bioactive Materials, 2021).

Biological target: T1, human receptor activator of nuclear factor-κB (RANK) (human, UniProt Q9Y6Q6 30-212)
T1 sequence (looked up): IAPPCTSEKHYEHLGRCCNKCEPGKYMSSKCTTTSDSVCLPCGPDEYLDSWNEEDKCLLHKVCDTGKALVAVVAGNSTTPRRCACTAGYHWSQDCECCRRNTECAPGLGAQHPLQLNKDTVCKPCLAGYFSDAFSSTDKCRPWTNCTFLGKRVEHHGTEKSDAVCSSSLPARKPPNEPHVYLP
Assay: SPR

binding result: binds
B1: human receptor activator of nuclear factor-κB ligand (RANKL) (ligand, UniProt O14788 140-317, looked up)
chain: IRAEKAMVDGSWLDLAKRSKLEAQPFAHLTINATDIPSGSHKVSLSSWYHDRGWAKISNMTFSNGKLIVNQDGFYYLYANICFRHHETSGDLATEYLQLMVYVTKTSIKIPSSHTLMKGGSTKYWSGNSEFHFYSINVGGFFKLRSGEEISIEVSNPSLLDPDQDATYFGAFKVRDID
